Assay results from the DeepSol protein solubility set.

Assay: soluble on expression in E. coli; label from the status in PepcDB or PDB records
In the case of “MTENNKLQTIEQQLVQEKNVSDNVLNKVRVLESQGNLELPNDYSPSNAMKQAWLQISQDNKLMSCNDTSKANALLDMVTQGLNPAKNQCYFIPYGNKMQLQRSYHGNVMMLKRDAGAQDVVAQVIYKGDTFKQEMGETGRIKAIKHEQDFFNIDKENIIGAYCTIVFNDGRDNYIEVMTIEQIKQAWMQSSMIKDEKALQNSKTHNNFKEEMAKKTVINRAAKRYINTSTDSNLFKYAQESEQRQRKEVLDAEVEENANQEQLDFEQPVLEEAQYTELENDKPIDVSDFEEIKEPATEKESEEEPF”, the “soluble on expression in E. coli” value is reported as “not soluble”.
With “MQLKRVAEAKLPTPWGDFLMVGFEEIATGHDHLALVYGDISGSVPVLARVHSECLTGDALFSLRCDCGFQLEAALGHIAEEGRGVLLYHRQEGRNIGLLNKIRAYALQDLGADTVEANHQLGFAADERDFTLCADMFKLLDVDEVRLLTNNPQKVKILNEAGINIVERVPLIVGRNPKNEHYLATKAAKMGHILDMKLEHHHHHH” the “soluble on expression in E. coli” value was “not soluble”.
In the case of “MGSDKIHHHHHHMEANSIDVNSILANKNLIIKFQPVVSVIKKSVIGLEAVCLGSSDDNGGIISTSKLFKTAEEQGVLIELDRLYREKAVKEFVKVYKRNKELLLFLDINISIIDKYVGSGIIMNLISDSGISTNNVVLQIIEGKMTNLEALKKFIYLYRSNGFLVALKDLGTGFANMDKISYVEPDIIKINSVLTKGIEVDYYRQEVFRSLVNLSKKIGALVVCEDIASEQETMMIMELGADMLEGSYFENDFDLGEKFLDASRKLIDATAVKYEKYTEEEVKAKEMIYSGYDFVINEALKELSSLTEDKFDDSINTVINKNSKLECVYVLNKEGIQVGSTATRFTDMVPQRALIFEPAQKGTNHSLKKYYYFLKTMSLNKYVTEPYISLATGNLCITISAVFKNLEGKEYILCVDFNPNYMSM”, the “soluble on expression in E. coli” value is reported as “not soluble”.
For “MWKNGAMRGCNKETGEFLGPSRSQQRRTALEVLVLSEKLAALTPAQLAKLPIPERLLPHITETKRITSHIARKRQLAFLAKQMRREDDTTLEAIREKLNASGIQAQREVATLHRTEQWRKRLLEEGDSALTELLNQYPQADCGKLRQLLRNSKTEQARNKAPQAFRELYQVLHGLIITQNSDNQHQTPQ”, the “soluble on expression in E. coli” value was “soluble”.
In the case of “MGSDKIHHHHHHMLITNVRPWGGDNVDLEVHEGRIAAVHPAGTGDVSADAAGGTIDGRGRIAFPAFTDVHVHLDSTRIGLPFREHTASPGVWNMMCNDRENWRDTPIPYADVVAGTLERMIARGTTRVRSYAQIDVDCKLERFEAVLAAKERFAHAAEVEVMAFPQAGLLLEDGTVPLLEEALRAGATTIGGIDPCQLDRDPARHLDIVFELAEKYGVDVDIHLHEPGHLGVFSAELIFERTRALGMQGRVSLSHAYDLANVHPDVTARIVEQMAELDVAWATVAPASGGAQFDLARMTEAGIRVGLGEDGQRDYWSPYGNCDMLDRTWQLAFTHRLRKDRLIEHCAAIATVGGASIMDRTVPRLTSPDDRPGLTPGDRADVVLVDGETVTSTVMDRGTDRTVIHDGRLVADGLAVLPRAAG”, the “soluble on expression in E. coli” value is reported as “not soluble”.
For “MSDEALTLLFSAVENGDQNCIDLLCNLALRNDDLGHRVEKFLFDLFSGKRTGSSDIDKKINQACLVLHQIANNDITKDNTEWKKLHAPSRLLYMAGSATTDLSKKIGIAHKIMGDQFAQTDQEQVGVENLWCGARMLSSDELAAATQGLVQESPLLSVNYPIGLIHPTTKENILSTQLLEKIAQSGLSHNEVFLVNTGDHWLLCLFYKLAEKIKCLIFNTYYDLNENTKQEIIEAAKIAGISESDEVNFIEMNLQNNVPNGCGLFCYHTIQLLSNAGQNDPATTLREFAENFLTLSVEEQALFNTQTRRQIYEYSLQ”, the “soluble on expression in E. coli” value was “not soluble”.
For “SHEWYAEKPFMLRSFLDRTVLQQAFESPETLTSLGFLESIGITGHNAELDDDRPEKTDALFAEMKKVKETLLTYDDSDLDESQLLSKEIAMYLLDILLVSEPYRYHNYPVNQLFGIQNGYPSFMDAQHQVNSVGDAENYIARLNKVKVKFSQNLEGLKLREEKGILPPRFVIDRVLEEMTAFVAKPAEENILYSSLKAKLSDAEDISPAEQTRLLNLAKEEIIASVHPAYQLLIDYFNQVADKSTTDDGIWKLPDGDKVYAQALKFFTTTDYSAGEIHNIGLHEVDRIQLDILTILEKENYDVSQGFTAAIETLAAQDEFYYPDTKAGREQILTDYQTILDEINAGLESAFRIRPKASMKVRRIPEFKEKTAPGAYYQQPSIDGSRPGMFFANLYDIKATPKYSMRTLAYHEGIPGHHFQIAIAMELEGMPLFRRISPFTAYTEGWALYTERLAWDLGFQDDPFDNIGRLQAELFRAVRLVVDTGIHHKRWTRQEAIDYMVANTGMAHSDVVSEIERYIVMPGQATSYKIGLMKILELRKKAKASLGDKFDLRDFHDVVLKNGAVPLDILTRLVDQYIADKSS”, the “soluble on expression in E. coli” value was “not soluble”.
For “MPLTPADVHNVAFSKPPIGKRGYNEDEVDAFLDLVENELTRLIEENSDLRQRINELDQELAAGGGAGVTPQATQAIPAYEPEPGKPAPAAVSAGMNEEQALKAARVLSLAQDTADRLTNTAKAESDKMLADARANAEQILGEARHTADATVAEARQRADAMLADAQSRSEAQLRQAQEKADALQADAERKHSEIMGTINQQRAVLEGRLEQLRTFEREYRTRLKTYLESQLEELGQRGSAAPVDSNADAGGFDQFNRGKN”, the “soluble on expression in E. coli” value was “soluble”.
For “MNAIIFCLLFTTVTATYEVFGKGIEHRNEHLIINQLDIIPVESTPTPNRASRVQKRLCGRRLILFMLATCGECDTDSSEDLSHICCIKQCDVQDIIRVCCPNSFRK”, the “soluble on expression in E. coli” value was “not soluble”.
In the case of “MTVAQLIDIDAKKTKTSNEVYQTSTMLALLDGIYDGVISFEDLKKHGDFGIGTFDQLDGEMIAFDNEFYHLRSDGSAEKVEPEETTPFATVTFFEKEMSYTVERPMNREEVEALLHELMPSKNLFYGIRMDGTFREVRTRTVPRQEKPYTPLVEVTKSQPIFSFENTEGTLAGFWTPDYAQGIGVAGFHLHYIDDERSGGGHVFDYVIENCTIQICQKAHMHLALPETADFMAAALSRENLEDNIATAEGAE”, the “soluble on expression in E. coli” value is reported as “not soluble”.
For “SNTLRDFFTNETYTTIENEQHVLTEYRLPGSIERRYYSEEATAPTTVRSVQHVLLPENEEASSDKDLSILSSSFIHKVYKLADKQEAKKKRYSADVNGEKVFFVIKKGLSVNGQSAMMLSYALDSYRDDLAYTLFKQ”, the “soluble on expression in E. coli” value was “not soluble”.
In the case of “MEETKRLQKVYQLFAESTTERIPTDRLVDVLRFAGYIISESYIGELLSSIPGETLDFGQLVDVCERIREREITREELQNSFRRLDVDNTSYIDAGRLVQILSSGENRFSDEEIEELLNILNPDGDGKICYDLVIKNIFGY”, the “soluble on expression in E. coli” value is reported as “not soluble”.
In the case of “MAHHHHHHMLQRSFVVRWVPRYIRQVPRVRQKKEQRDAVAMGRSKAPSKRRAECSAVSERDGGVARAAQAKRLEITEEGSTVLESPVSDVSRLLLRKAETLLDSWQKLNMTMTISGSRSDSLMGMKNSSSSQKRDAVAFMAQTEVFAVVKGMIHLSTPHEGSLNRCEEDNKHDSLRQNAFQEYRSTNIISGMVVIPDEATNDAVNYLAQIGRHRVGKVQDKVASLDDSFPISSAIFSLHEVVVFLELYNAMDCEDGELLLRLLEELRRIVFSTEKEIRTENHVLRECEEGVIPRLLLTLSSLGIVEENVLQRIVAINDGSILSRATIARYPESDLIRLLVAFNRFGLHHEPCFHVTAKTLRRNSLRNPLKSFCRNAVNCRVDAAPLGDGEKRSRIPSSMAGLTMNELLEALTAIALSLCREREVVKLLAATIVTAVEDEEYMRCSTKEKAKTREEDLGLLRTLQVHRAAKVCEQMDMPQPSLAHLLHRLSIRYGGLLADGGDVSLSPERVGFYDFITADLVKARCS”, the “soluble on expression in E. coli” value is reported as “not soluble”.
For “MSLHSVKASANRFTKTSQGRSWNTGNGSPDAICFAVDKPGIVVVGFAVYGGGGIHEYELEVLVDDSEHAGDSTHSHRWTSLELVKGTYTTDDSPSDIAEIRLDKVVPLKENVKYAVRLRNYGSRTANGDGGMTTVQCPDGVTFTFSTCSLSSNGTNQTRGQIPQILYYRSEFDGDLQSQLLSKANEEDKNCSRALSVVSTVVRAAKDLLHRALAVDADEGHHHHHH”, the “soluble on expression in E. coli” value was “soluble”.
For “MAHHHHHHMGPTPYQDKPYPVQPHNLNEFQQPPDTWRKSPFMSKLMDQALPVYDDVVTGSGRLYWQEPAKVWHLFEADDTLILEEHDREEWNERPYVAVNHLYEPPIGSEERPIRVEAVGNPGDQQIVMCFGNCAPHVPQSTYYMMMKGYSKNKCPMCQQWFYIHNRPWLVMHPDWTDEPAADEGPAYTFAEIEAEFDRDFHEFAVYLNAE”, the “soluble on expression in E. coli” value was “not soluble”.
For “MKNIIACIDGSPTTFATCEASAWVASKINAPLILLHALDKTMRPVVSEFSGQIGLGSQEELLNELAELDEARSKVALKHGKKLLEEATEWVIKKGLTNVEQLQRHGSLLESLIDLENQLRVLVIGKLGEDQSSNKTIGSQLESIIRSIKSHTLVVTSPFSIPTSYLIAFDGSPTSEKLIEKAIKTPLLFGLDCHFVMVDDFAAKSAAFEKAAIKLKNAGLSVHEDILSGSVDEALLKYQKDHQIGMMVMGAYGHSTLRQFFLGSNTTKVLIKSEVPLLLIR”, the “soluble on expression in E. coli” value was “not soluble”.
With “MFLQHNNQLICNLEKMGLTENEAKAYVGLVSLGEATAREVHELTNVPRAKIYEVLKVLAKRGYLEVRQGSPTYFRAVDPKQVIGKIKDEFINCAIETLDQLNELSYELPRTSPVWCIQSEWGIKNRIREILNGVKEELIVFSSSPRFFQEFEAELKKLEKTCQLTFIISEPEKFESFPFEFRETTKEFREFLNNIVIDGIRYDEEFFMIADGKESIGVHSAGDKREAVVIKLPVVCYLQKMIYDRVLEPSFVKKNRKSA” the “soluble on expression in E. coli” value was “not soluble”.
In the case of “METETATTPTGNTEPTAAASAEPPKSDKVTVRLRNIADAPVLKNKKMVVNPTDTVASFILKLRKLLNIQANNSLFLYIDNTFAPSPDTTFETLSRCYSVKITDKEILELQYSITPAYG”, the “soluble on expression in E. coli” value is reported as “soluble”.
For “MHHHHHHMSWNHQSVEIAVRRTTVPSPNLPPGFDFTDPAIYAERLPVAEFAELRSAAPIWWNGQDPGKGGGFHDGGFWAITKLNDVKEISRHSDVFSSYENGVIPRFKNDIAREDIEVQRFVMLNMDAPHHTRLRKIISRGFTPRAVGRLHDELQERAQKIAAEAAAAGSGDFVEQVSCELPLQAIAGLLGVPQEDRGKLFHWSNEMTGNEDPEYAHIDPKASSAELIGYAMKMAEEKAKNPADDIVTQLIQADIDGEKLSDDEFGFFVVMLAVAGNETTRNSITQGMMAFAEHPDQWELYKKVRPETAADEIVRWATPVTAFQRTALRDYELSGVQIKKGQRVVMFYRSANFDEEVFQDPFTFNILRNPNPHVGFGGTGAHYCIGANLARMTINLIFNAVADHMPDLKPISAPERLRSGWLNGIKHWQVDYTGRCPVAH”, the “soluble on expression in E. coli” value was “soluble”.
For “MGSDKIHHHHHHMIRINMFSQADSVAGQGVGAAYLELIRLLRTHLVDDFYVTINKYGRSDLTHYHTINPTYFANSFSPARGRKIGYVHFLPDTLERSIKLPGVAKKVFYQYVIDFYKRMDQIVVVNPIFIDKLTEYGLDRNKIRYIPNFVAKSEFYEQTQAKKNATRQELGIPQDKFVVFGDGQVQARKGVDDFAKLAEANPDYQFIWAGGFSFGKITDGYDHFKQLVENPPKNLTFTGIIDREKLVDYLNMADLFLLPSFDELFPMSVLEAFSCGTPVLLRDLDLYRAIIDGYYLAGKDSAEMNEQLRFAATHPEVLARQQELSRKASQQYSEDHLAEIWRDFYQEQYQLGRELGQISYE”, the “soluble on expression in E. coli” value was “not soluble”.
With “MNIFAILNHMGVFFKEEPVRQLHAALEKAGYEVVYPVDDKDLIKMIEMNPRICGVLFDWDKYSLELCERISQINEKLPVHAFANEQSTLDISLTDLRLNVSFFEYALGMADDI” the “soluble on expression in E. coli” value was “not soluble”.
